Measured values from the supplement of paper PMC9112550, “Optimization of the antimicrobial peptide Bac7 by deep mutational scanning” (BMC Biology, 2022).

Test system: Escherichia coli TOP10
Test: shrunken log2 fold change of peptide-encoding DNA abundance (4.5 h post-induction vs induction); higher = less antimicrobial activity (less host growth inhibition)
Details: time post-induction: 4.5 h; library: site-saturation at positions 5, 18, 19, 20
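Note: peptides expressed intracellularly from a pBAD plasmid library in pooled LB shake-flask culture, induced with 0.3% L-arabinose, DNA abundance read by NGS, three biological replicates, DESeq2 with apeglm shrinkage.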

## RRIRYRPPRLPRPRPRPTHRPRP
  shrunken log2 fold change: -0.1

## RRIRYRPPRLPRPRPRPTHWPRP
  shrunken log2 fold change: 0.272

## RRIRYRPPRLPRPRPRPTKAPRP
  shrunken log2 fold change: -0.0298

## RRIRYRPPRLPRPRPRPTKLPRP
  shrunken log2 fold change: -0.683

## RRIRYRPPRLPRPRPRPTLDPRP
  shrunken log2 fold change: -0.628

## RRIRYRPPRLPRPRPRPTNTPRP
  shrunken log2 fold change: -1.15

## RRIRYRPPRLPRPRPRPTPEPRP
  shrunken log2 fold change: 0.264

## RRIRYRPPRLPRPRPRPTQSPRP
  shrunken log2 fold change: 0.0623

## RRIRYRPPRLPRPRPRPTSFPRP
  shrunken log2 fold change: -0.255

## RRIRYRPPRLPRPRPRPTTSPRP
  shrunken log2 fold change: -0.382

## RRIRYRPPRLPRPRPRPTTYPRP
  shrunken log2 fold change: -0.941

## RRIRYRPPRLPRPRPRPTVIPRP
  shrunken log2 fold change: -0.146

## RRIRYRPPRLPRPRPRPTVPPRP
  shrunken log2 fold change: -0.382

## RRIRYRPPRLPRPRPRPTYPPRP
  shrunken log2 fold change: 0.105

## RRIRYRPPRLPRPRPRPTYSPRP
  shrunken log2 fold change: -0.443

## RRIRYRPPRLPRPRPRPVANPRP
  shrunken log2 fold change: -0.0575

## RRIRYRPPRLPRPRPRPVCIPRP
  shrunken log2 fold change: -1.24

## RRIRYRPPRLPRPRPRPVCVPRP
  shrunken log2 fold change: -0.339

## RRIRYRPPRLPRPRPRPVCWPRP
  shrunken log2 fold change: 0.196

## RRIRYRPPRLPRPRPRPVDCPRP
  shrunken log2 fold change: -0.103

## RRIRYRPPRLPRPRPRPVDGPRP
  shrunken log2 fold change: -0.0183

## RRIRYRPPRLPRPRPRPVEHPRP
  shrunken log2 fold change: -0.0137

## RRIRYRPPRLPRPRPRPVEVPRP
  shrunken log2 fold change: -0.282

## RRIRYRPPRLPRPRPRPVFQPRP
  shrunken log2 fold change: -0.503

## RRIRYRPPRLPRPRPRPVGKPRP
  shrunken log2 fold change: -1.51

## RRIRYRPPRLPRPRPRPVHHPRP
  shrunken log2 fold change: -0.211

## RRIRYRPPRLPRPRPRPVLCPRP
  shrunken log2 fold change: -0.272

## RRIRYRPPRLPRPRPRPVLKPRP
  shrunken log2 fold change: -0.122

## RRIRYRPPRLPRPRPRPVMSPRP
  shrunken log2 fold change: -0.233

## RRIRYRPPRLPRPRPRPVMWPRP
  shrunken log2 fold change: 3.51

## RRIRYRPPRLPRPRPRPVNIPRP
  shrunken log2 fold change: -0.617

## RRIRYRPPRLPRPRPRPVSDPRP
  shrunken log2 fold change: -0.379

## RRIRYRPPRLPRPRPRPVSWPRP
  shrunken log2 fold change: 0.106

## RRIRYRPPRLPRPRPRPVTLPRP
  shrunken log2 fold change: -0.713

## RRIRYRPPRLPRPRPRPVTPPRP
  shrunken log2 fold change: -0.118

## RRIRYRPPRLPRPRPRPVTQPRP
  shrunken log2 fold change: 3.05

## RRIRYRPPRLPRPRPRPVTWPRP
  shrunken log2 fold change: -0.207

## RRIRYRPPRLPRPRPRPVVKPRP
  shrunken log2 fold change: -0.0513

## RRIRYRPPRLPRPRPRPVYCPRP
  shrunken log2 fold change: -0.416

## RRIRYRPPRLPRPRPRPVYYPRP
  shrunken log2 fold change: -0.68

## RRIRYRPPRLPRPRPRPWELPRP
  shrunken log2 fold change: 0.0358

## RRIRYRPPRLPRPRPRPWGEPRP
  shrunken log2 fold change: -0.102

## RRIRYRPPRLPRPRPRPWIDPRP
  shrunken log2 fold change: -0.274

## RRIRYRPPRLPRPRPRPWIVPRP
  shrunken log2 fold change: -0.219

## RRIRYRPPRLPRPRPRPWKDPRP
  shrunken log2 fold change: -0.0122

## RRIRYRPPRLPRPRPRPWMDPRP
  shrunken log2 fold change: -0.159

## RRIRYRPPRLPRPRPRPWNVPRP
  shrunken log2 fold change: -0.0218

## RRIRYRPPRLPRPRPRPWPEPRP
  shrunken log2 fold change: -0.0592

## RRIRYRPPRLPRPRPRPWRFPRP
  shrunken log2 fold change: -0.00218

## RRIRYRPPRLPRPRPRPWRQPRP
  shrunken log2 fold change: -0.00152

## RRIRYRPPRLPRPRPRPWSDPRP
  shrunken log2 fold change: -0.0783

## RRIRYRPPRLPRPRPRPWSMPRP
  shrunken log2 fold change: -0.221

## RRIRYRPPRLPRPRPRPWWMPRP
  shrunken log2 fold change: -0.452

## RRIRYRPPRLPRPRPRPWWSPRP
  shrunken log2 fold change: -0.0117

## RRIRYRPPRLPRPRPRPWYVPRP
  shrunken log2 fold change: -1.13

## RRIRYRPPRLPRPRPRPYAGPRP
  shrunken log2 fold change: -0.00131

## RRIRYRPPRLPRPRPRPYDFPRP
  shrunken log2 fold change: -0.138

## RRIRYRPPRLPRPRPRPYDRPRP
  shrunken log2 fold change: -0.039

## RRIRYRPPRLPRPRPRPYGFPRP
  shrunken log2 fold change: -0.182

## RRIRYRPPRLPRPRPRPYHYPRP
  shrunken log2 fold change: -0.556

## RRIRYRPPRLPRPRPRPYIIPRP
  shrunken log2 fold change: -0.241

## RRIRYRPPRLPRPRPRPYIMPRP
  shrunken log2 fold change: -0.223

## RRIRYRPPRLPRPRPRPYKNPRP
  shrunken log2 fold change: -1.42

## RRIRYRPPRLPRPRPRPYKVPRP
  shrunken log2 fold change: -0.0075

## RRIRYRPPRLPRPRPRPYLQPRP
  shrunken log2 fold change: -1.9

## RRIRYRPPRLPRPRPRPYLTPRP
  shrunken log2 fold change: -0.305

## RRIRYRPPRLPRPRPRPYMIPRP
  shrunken log2 fold change: -0.0298

## RRIRYRPPRLPRPRPRPYMMPRP
  shrunken log2 fold change: -0.337

## RRIRYRPPRLPRPRPRPYMNPRP
  shrunken log2 fold change: 0.0271

## RRIRYRPPRLPRPRPRPYQDPRP
  shrunken log2 fold change: -1.1

## RRIRYRPPRLPRPRPRPYQGPRP
  shrunken log2 fold change: 0.00408

## RRIRYRPPRLPRPRPRPYQQPRP
  shrunken log2 fold change: -0.0715

## RRIRYRPPRLPRPRPRPYREPRP
  shrunken log2 fold change: 0.0196

## RRIRYRPPRLPRPRPRPYSCPRP
  shrunken log2 fold change: -0.344

## RRIRYRPPRLPRPRPRPYSQPRP
  shrunken log2 fold change: -0.505

## RRIRYRPPRLPRPRPRPYSTPRP
  shrunken log2 fold change: -0.648

## RRIRYRPPRLPRPRPRPYTSPRP
  shrunken log2 fold change: -0.533

## RRIRYRPPRLPRPRPRPYVDPRP
  shrunken log2 fold change: -0.0075

## RRIRYRPPRLPRPRPRPYWTPRP
  shrunken log2 fold change: -0.00804
